# Assay results published in patent publication US20220135654A1 (GOVERNMENT OF THE UNITED STATES OF AMERICA AS REPRESENTED …, published 2022).
# B1: sdAb clone A9 (VHH)
# VHH: EVQLQASGGGLVQAGESLRLSCVVSGGAFRIMDMGWFRQVPGKQREVVGVISSGGYTNYADSVKGRFTISRDNAKRTVYLHMNSLKPEDTAVYYCNIIPKSDQGAVNTWGKGTLVSVSS
# B2: sdAb clone B6 (VHH)
# VHH: EVQLQASGGGLVQAGDSLRLSCVAVSGRTISTFAMGWFRQAPGKEREFVATINWSGSSARYADPVEGRFTISRDDAKNTVYLEMSSLKPGDSAVYYCASGRYLGGITSYSQGDFAPWGQGTQVTVSS
# notes: also called Bt-B6
# B3: sdAb clone E10 (VHH)
# VHH: DVQLQASGGGLVQAGGSLRLSCAASARTFYTMGWFRQVLGKDREFVGAIRWGVYATTRYADSVKGRFSISRDDATNTVALQMNSLKPEDTAVYYCAARAGPLGFELSATSSAEYDYWGQGTQVTVSS
# Experiments:
# [1] = molecular target: SARS-CoV-2 receptor-binding domain (SARS-CoV-2, UniProt P0DTC2 319-541); experiment: direct-binding MagPlex assay, biotinylated sdAb on RBD-coated microspheres
# [2] = molecular target: SARS-CoV-2 nucleocapsid protein (recombinant) (SARS-CoV-2, UniProt P0DTC9 1-419); experiment: SPR (ProteOn XPR36), N immobilised on chip, sdAb in flow, 25 C
Binder,binding result [1],Kd [2],koff [2],kon [2]
B1,no binding,–,–,–
B2,no binding,1.6 nM,0.0003 s⁻¹,190000 M⁻¹ s⁻¹
B3,no binding,14 nM,0.00095 s⁻¹,69000 M⁻¹ s⁻¹
